{"source": "patent US11402384B2", "about": "(Duke University, priority 2015, dated 2022)", "experiment": "Ratiometric fluorescence glucose titration of fluorescent conjugates", "assay_type": "binding", "parameters": "key to Shape (fluorescence response to glucose) / Change (fluorescence response to glucose): m, monochromatic; d, dichromatic (i.e. spectral shape change); 0, no change", "conditions": "for fluorescence response to glucose: monochromatic or dichromatic emission change", "text": "Semi-synthetic FRSs can be engineered by site-specifically attaching thiol-reactive, environmentally sensitive fluorophores that respond to ligand-mediated conformational changes. Identification of FRS candidates that can be used for sensing applications comprises three steps: • 1. Cysteine scan. Mutant glucose-binding proteins containing single cysteines are constructed for site-specific attachment of thiol-reactive fluorophores. […] Candidate positions fall into three classes: endosteric, replacing a residue that contacts the ligand directly; peristeric, located at the rim of the binding site; allosteric (Marvin et al., 1997, Proc Natl Acad Sci USA, 94, 4366-71; Marvin, 1998, J Am Chem Soc, 120, 7-11), located outside the binding site at sites that undergo local structural changes in concert with the hinge-bending motion. • 2. Fluorophore screening. Thiol-reactive, environmentally sensitive fluorophores are attached to each cysteine mutant prepared in step 1. • 3. Evaluation of the glucose-mediated change of all the fluorescent conjugates prepared in step 2. Responses to ligand binding in which there is both a change in fluorescence emission intensity and spectral shape are essential for chemometric applications, because such changes enable ratiometric measurements. Changes in spectral shape typically are accompanied by a shift in the wavelength of the emission intensity maxima. Three classes of fluorescent responses are possible: • i. No response. • ii. Monochromatic response (emission intensity increases or decreases without a change in spectral shape) • iii.\nDetermination of temperature- and ligand-dependent fluorescence landscapes. […] Temperatures were advanced in 1K steps.\nDetermination of emission intensity spectra.\n2 For a single glucose-binding site, the fractional saturation is given by […]", "key": {"[1]": {"conditions": "tsGBP2 cysteine scan, Acrylodan conjugate"}, "[2]": {"conditions": "ttGBP1 homologs, 13C-equivalent mutants labeled with Acrylodan or Badan"}, "[3]": {"conditions": "tsGBP2 cysteine scan, Badan conjugate"}}, "note": "“Also recorded” adds a separate entry of the source."}
{"molecule": "E13C Acrylodan: tsGBP2_C13 (SEQ ID NO: 20) Acrylodan conjugate (conjugate, Acrylodan conjugate; tsGBP2_C13 (13C substitution mutant with signal peptide replaced with M and a GGSHHHHHH at C-terminus)) MKLEIFSWWAGDCGPALEALIRLYKQKYPGVEVINATVTGGAGVNAKAVLKTRMLGGDPPDTFQVHAGQELIGTWVVADRMEDLTSLFRQEGWLQAFPKGLIDLLSYKGGIWSVPVNIHRSNVMWYIPAKLKEWGVTPPKTWAEFLATAQTLKRKGLEAPLALGENWTQQHLWESVALATLGADGWNNLWSGKLKFTDPKAVAVWETFGKVLDAANKDAAGLSWQQAVDRVVQGKAAFNIMGDWAAGYMSTTLKLKPGTDFAWTPSPGTSGIFMMLSDSFGLPKGAKNRQNAINWLKLVGSKEGQDTFNPLKGSIAARLDSDPAKYNAYGQSAMKDWKSNRIVGSLVHGAVAPESFMSQFGTVMEIFLQSRNPQAAANAAQAIANQVGLGRGGSHHHHHH", "values": [{"measurement": "fluorescence response to glucose", "setting": "listed as 13C.Acrylodan conjugate", "result": "strong dichromatic response; also recorded: strongest dichromatic response"}, {"measurement": "fluorescence response to glucose", "setting": "listed as Acrylodan conjugate attached to E13C", "result": "largest, wavelength-dependent changes in fluorescence emission intensities"}, {"measurement": "Shape (fluorescence response to glucose)", "setting": "[1]", "result": "d"}, {"measurement": "Shape (fluorescence response to glucose)", "setting": "[2]", "result": "d"}]}
{"molecule": "G41C Badan: tsGBP2_C41 (SEQ ID NO: 21) Badan conjugate (conjugate, Badan conjugate; tsGBP2_C41 (41C substitution mutant with signal peptide replaced with M and a GGSHHHHHH at C-terminus)) MKLEIFSWWAGDEGPALEALIRLYKQKYPGVEVINATVTGCAGVNAKAVLKTRMLGGDPPDTFQVHAGQELIGTWVVADRMEDLTSLFRQEGWLQAFPKGLIDLLSYKGGIWSVPVNIHRSNVMWYIPAKLKEWGVTPPKTWAEFLATAQTLKRKGLEAPLALGENWTQQHLWESVALATLGADGWNNLWSGKLKFTDPKAVAVWETFGKVLDAANKDAAGLSWQQAVDRVVQGKAAFNIMGDWAAGYMSTTLKLKPGTDFAWTPSPGTSGIFMMLSDSFGLPKGAKNRQNAINWLKLVGSKEGQDTFNPLKGSIAARLDSDPAKYNAYGQSAMKDWKSNRIVGSLVHGAVAPESFMSQFGTVMEIFLQSRNPQAAANAAQAIANQVGLGRGGSHHHHHH", "values": [{"measurement": "Shape (fluorescence response to glucose)", "setting": "[3]", "result": "m"}]}
{"molecule": "W244C Acrylodan: tsGBP2_C244 (SEQ ID NO: 30) Acrylodan conjugate (conjugate, Acrylodan conjugate; tsGBP2_C244 (244C substitution mutant with signal peptide replaced with M and a GGSHHHHHH at C-terminus)) MKLEIFSWWAGDEGPALEALIRLYKQKYPGVEVINATVTGGAGVNAKAVLKTRMLGGDPPDTFQVHAGQELIGTWVVADRMEDLTSLFRQEGWLQAFPKGLIDLLSYKGGIWSVPVNIHRSNVMWYIPAKLKEWGVTPPKTWAEFLATAQTLKRKGLEAPLALGENWTQQHLWESVALATLGADGWNNLWSGKLKFTDPKAVAVWETFGKVLDAANKDAAGLSWQQAVDRVVQGKAAFNIMGDCAAGYMSTTLKLKPGTDFAWTPSPGTSGIFMMLSDSFGLPKGAKNRQNAINWLKLVGSKEGQDTFNPLKGSIAARLDSDPAKYNAYGQSAMKDWKSNRIVGSLVHGAVAPESFMSQFGTVMEIFLQSRNPQAAANAAQAIANQVGLGRGGSHHHHHH", "values": [{"measurement": "fluorescence response to glucose", "result": "strong monochromatic response"}, {"measurement": "Shape (fluorescence response to glucose)", "setting": "[1]", "result": "m"}]}
{"molecule": "A42C Acrylodan: tsGBP2_C42 (SEQ ID NO: 22) Acrylodan conjugate (conjugate, Acrylodan conjugate; tsGBP2_C42 (42C substitution mutant with signal peptide replaced with M and a GGSHHHHHH at C-terminus)) MKLEIFSWWAGDEGPALEALIRLYKQKYPGVEVINATVTGGCGVNAKAVLKTRMLGGDPPDTFQVHAGQELIGTWVVADRMEDLTSLFRQEGWLQAFPKGLIDLLSYKGGIWSVPVNIHRSNVMWYIPAKLKEWGVTPPKTWAEFLATAQTLKRKGLEAPLALGENWTQQHLWESVALATLGADGWNNLWSGKLKFTDPKAVAVWETFGKVLDAANKDAAGLSWQQAVDRVVQGKAAFNIMGDWAAGYMSTTLKLKPGTDFAWTPSPGTSGIFMMLSDSFGLPKGAKNRQNAINWLKLVGSKEGQDTFNPLKGSIAARLDSDPAKYNAYGQSAMKDWKSNRIVGSLVHGAVAPESFMSQFGTVMEIFLQSRNPQAAANAAQAIANQVGLGRGGSHHHHHH", "values": [{"measurement": "Shape (fluorescence response to glucose)", "setting": "[1]", "result": 0}]}
{"molecule": "G41C Acrylodan: tsGBP2_C41 (SEQ ID NO: 21) Acrylodan conjugate (conjugate, Acrylodan conjugate; tsGBP2_C41 (41C substitution mutant with signal peptide replaced with M and a GGSHHHHHH at C-terminus)) MKLEIFSWWAGDEGPALEALIRLYKQKYPGVEVINATVTGCAGVNAKAVLKTRMLGGDPPDTFQVHAGQELIGTWVVADRMEDLTSLFRQEGWLQAFPKGLIDLLSYKGGIWSVPVNIHRSNVMWYIPAKLKEWGVTPPKTWAEFLATAQTLKRKGLEAPLALGENWTQQHLWESVALATLGADGWNNLWSGKLKFTDPKAVAVWETFGKVLDAANKDAAGLSWQQAVDRVVQGKAAFNIMGDWAAGYMSTTLKLKPGTDFAWTPSPGTSGIFMMLSDSFGLPKGAKNRQNAINWLKLVGSKEGQDTFNPLKGSIAARLDSDPAKYNAYGQSAMKDWKSNRIVGSLVHGAVAPESFMSQFGTVMEIFLQSRNPQAAANAAQAIANQVGLGRGGSHHHHHH", "values": [{"measurement": "Shape (fluorescence response to glucose)", "setting": "[1]", "result": "d"}]}
{"molecule": "D12C Acrylodan: tsGBP2_C12 (SEQ ID NO: 19) Acrylodan conjugate (conjugate, Acrylodan conjugate; tsGBP2_C12 (12C substitution mutant with signal peptide replaced with M and a GGSHHHHHH at C-terminus)) MKLEIFSWWAGCEGPALEALIRLYKQKYPGVEVINATVTGGAGVNAKAVLKTRMLGGDPPDTFQVHAGQELIGTWVVADRMEDLTSLFRQEGWLQAFPKGLIDLLSYKGGIWSVPVNIHRSNVMWYIPAKLKEWGVTPPKTWAEFLATAQTLKRKGLEAPLALGENWTQQHLWESVALATLGADGWNNLWSGKLKFTDPKAVAVWETFGKVLDAANKDAAGLSWQQAVDRVVQGKAAFNIMGDWAAGYMSTTLKLKPGTDFAWTPSPGTSGIFMMLSDSFGLPKGAKNRQNAINWLKLVGSKEGQDTFNPLKGSIAARLDSDPAKYNAYGQSAMKDWKSNRIVGSLVHGAVAPESFMSQFGTVMEIFLQSRNPQAAANAAQAIANQVGLGRGGSHHHHHH", "values": [{"measurement": "Shape (fluorescence response to glucose)", "setting": "[1]", "result": "m"}]}
{"molecule": "E13C Badan: tsGBP2_C13 (SEQ ID NO: 20) Badan conjugate (conjugate, Badan conjugate; tsGBP2_C13 (13C substitution mutant with signal peptide replaced with M and a GGSHHHHHH at C-terminus)) MKLEIFSWWAGDCGPALEALIRLYKQKYPGVEVINATVTGGAGVNAKAVLKTRMLGGDPPDTFQVHAGQELIGTWVVADRMEDLTSLFRQEGWLQAFPKGLIDLLSYKGGIWSVPVNIHRSNVMWYIPAKLKEWGVTPPKTWAEFLATAQTLKRKGLEAPLALGENWTQQHLWESVALATLGADGWNNLWSGKLKFTDPKAVAVWETFGKVLDAANKDAAGLSWQQAVDRVVQGKAAFNIMGDWAAGYMSTTLKLKPGTDFAWTPSPGTSGIFMMLSDSFGLPKGAKNRQNAINWLKLVGSKEGQDTFNPLKGSIAARLDSDPAKYNAYGQSAMKDWKSNRIVGSLVHGAVAPESFMSQFGTVMEIFLQSRNPQAAANAAQAIANQVGLGRGGSHHHHHH", "values": [{"measurement": "Shape (fluorescence response to glucose)", "setting": "[3]", "result": "m"}, {"measurement": "Change (fluorescence response to glucose)", "setting": "tsGBP 13C affinity mutants, Acrylodan or Badan conjugates", "result": "m/d"}, {"measurement": "Shape (fluorescence response to glucose)", "setting": "[2]", "result": "m"}]}
{"molecule": "D12C Badan: tsGBP2_C12 (SEQ ID NO: 19) Badan conjugate (conjugate, Badan conjugate; tsGBP2_C12 (12C substitution mutant with signal peptide replaced with M and a GGSHHHHHH at C-terminus)) MKLEIFSWWAGCEGPALEALIRLYKQKYPGVEVINATVTGGAGVNAKAVLKTRMLGGDPPDTFQVHAGQELIGTWVVADRMEDLTSLFRQEGWLQAFPKGLIDLLSYKGGIWSVPVNIHRSNVMWYIPAKLKEWGVTPPKTWAEFLATAQTLKRKGLEAPLALGENWTQQHLWESVALATLGADGWNNLWSGKLKFTDPKAVAVWETFGKVLDAANKDAAGLSWQQAVDRVVQGKAAFNIMGDWAAGYMSTTLKLKPGTDFAWTPSPGTSGIFMMLSDSFGLPKGAKNRQNAINWLKLVGSKEGQDTFNPLKGSIAARLDSDPAKYNAYGQSAMKDWKSNRIVGSLVHGAVAPESFMSQFGTVMEIFLQSRNPQAAANAAQAIANQVGLGRGGSHHHHHH", "values": [{"measurement": "Shape (fluorescence response to glucose)", "setting": "[3]", "result": "m"}]}
